From PMC10397321, “Energetic robustness to large scale structural fluctuations in a photosynthetic supercomplex” (Nature Communications, 2023)

B1: iron-stressed induced protein A (IsiA) (natural protein)
chain: not shown
notes: IsiA, iron-stressed induced protein A, Synechocystis sp; PCC 6803; six trans-membrane helices; model rebuilt from subunit X of PDB 6NWA; Each IsiA protomer coordinates 17 chlorophylls and 4 carotenoids; 18 copies form the ring around the PSI trimer; also called IsiA protomer; IsiA monomer; source: endogenous, purified as PSI-IsiA supercomplex from Synechocystis sp; PCC 6803 grown with low iron …

Experiments:
[1] = target: B1; experiment: cryo-EM structure; native PSI3-IsiA18 supercomplex co-purified from Synechocystis sp. PCC 6803 membranes in DDM; 30 mM Tricine-NaOH pH 8, 75 mM NaCl, 0.02% DDM; 1.5 mg chlorophyll/ml; vitrified on holey carbon grids; C3 symmetry expansion and multibody refinement; conditions: both partners purified
[2] = target: the molecule itself; experiment: as above

| binding result [1] | Binder | stoichiometry N [2] |
| --- | --- | --- |
| binds | PsaF subunit of photosystem I (natural protein, Synechocystis sp. PCC 6803, UniProt P29256 24-165, looked up, PsaF, PSI subunit, Synechocystis sp; PCC 6803; Stood in the assay as a subunit of PSI; also called PsaF/J; PsaJ/F; source: endogenous, purified as part of the PSI-IsiA supercomplex from Synechocystis sp; PCC 6803 (DDM-solubilised membranes, DEAE column, sucrose gradients)) DDFANLTPCSENPAYLAKSKNFLNTTNDPNSGKIRAERYASALCGPEGYPHLIVDGRFTHAGDFLIPSILFLYIAGWIGWVGRSYLIEIRESKNPEMQEVVINVPLAIKKMLGGFLWPLAAVGEYTSGKLVMKDSEIPTSPR |  |
|  | B1 | 18 |
| binds | MDGLKSFLSTAPVMIMALLTFTAGILIEFNRFYPDLLFHP (natural protein, Synechocystis sp. PCC 6803, UniProt Q55329 1-40, looked up, PsaJ, PSI subunit, Synechocystis sp; PCC 6803; Stood in the assay as a subunit of PSI; also called PsaF/J; PsaJ/F; source: endogenous, purified as part of the PSI-IsiA supercomplex from Synechocystis sp; PCC 6803 (DDM-solubilised membranes, DEAE column, sucrose gradients)) [PsaJ subunit of photosystem I] |  |
